Experiment [1] addresses unidentified caltrin binding site on COS-7 monkey kidney cells (monkey). The experiment can be described thus: FACS-based binding, anti-caltrin and labelled anti-rabbit antibody.
Experiment [2] concerns the target unidentified caltrin binding site on ST2 osteoblast-like cells. Described as above.
The target of experiment [3] is unidentified caltrin receptor on primary mouse calvarial osteoblasts (mouse). Nature of the experiment: competition curve: unlabelled caltrin against 10 ng 125I-caltrin on primary calvarial osteoblasts, 4 C, 2 h.
Experiment [4] shares this target. Nature of the experiment: saturation binding of 125I-caltrin on 2×10^5 primary mouse calvarial osteoblasts, Scatchard analysis.

This note sets out measurements from patent US20080119406A1.

As usually defined, the Kd is the concentration at which binding is half-saturated.

B1: recombinant caltrin (mouse, V5/His-tagged, secreted from baculovirus-infected Sf-9 cells) (ligand, not shown: small tags and cut ends)
chain: LICNSCEKSRDSRCTMPQSRCVAKPGESCSTVSHFVGTKHVYSKQMCSPQCKEKQLNTGKKLIYIMCCEKNLCNSF
For the molecule B1, the shift in the mean fluorescence in experiment [1] was 80%. The shift in the mean fluorescence in experiment [2] worked out at 75%. In addition, in experiment [3], the dissociation constant (Kd) was found to be 2.2 nM and the binding sites per cell (Bmax) (binding sites per cell) stood at 14000.

B2: ^125I-caltrin (radiolabelled recombinant caltrin) (ligand, not shown: small tags and cut ends)
chain: B1 chain
modifications: 125I label by the lactoperoxidase method; labelled residues not stated
In experiment [4], B2 came in with an equilibrium dissociation constant (Kd) of 1.2 nM and a binding sites per cell (binding sites per cell) of 60000.
